{"source": "patent US8669088B2", "about": "“Enzyme associated with equol synthesis” (Otsuka Pharmaceutical Co., Ltd., priority 2007, dated 2014)", "molecules": {"B1": {"name": "E2 enzyme: polypeptide (SEQ ID NO: 7) having an activity to synthesize tetrahydrodaidzein using dihydrodaidzein as a substrate (protein, listed as Lactococcus garvieae)", "chain": "MAQEVKVPKMPGAPVFGKWISPEESVGQRLKGKKILLTGTTKGVGRVTQELLCAHGAFVCGSGRTPGVAASVADELKAKGYQAAGMDVDLSDYDAVKKWVEECAELMGGIDVVINNASHPGMAPFGEMTPEIWNYGIKNELDLVYNVCNCAWPYLQKADGASIIITSSTVALQGSNSPQACHAACKGACLSLARQLAAEGGPFGIRCNSVTPGLVWTEAMSNIPKEMASGLVAAQTTQQAVDPMDIAYAYLFLASDESRQITAANIPVDGGCAGAVTGGMQGEIEV"}, "B2": {"name": "E3 enzyme: polypeptide (SEQ ID NO: 13) having an activity to synthesize equol using tetrahydrodaidzein as a substrate (protein, listed as Lactococcus garvieae)", "chain": "MAEFDVEYDLVVVGGGASGKSAALIAAREGKRVVVLEKMPETGGLSMYAEGTAAFESSIQNELGTPRLSKYHFPTKQEGIEKFMGYSHQRANYDVVRAFVENSAETIDIYRDLGVVYKACDIAAEDDPNEVWTFHLPEGLGAHCQEVLLDAIQKLDVDIFTSTPAKELIIEDGAVVGVVAESDGEPLRVGGKAVILATGGMGSSPERIFKYSWFAPAAYNMNTLTPLQNVGDGLDLALSAGADPTYITTCPILAAGGRDMTMDSQVGGAGVNPGVWINKTGRRFAAESVAENIGDIGTYYGKQPGGVVWSILSQADIDRLVAEGSEIAIGEFVVYHKPMERLPIELEAHLESGLVKKAGSFEELAALIDVPVDTFVATMADYNEACEKGYDDAFMKKPQYLRPMVEGPFYAIPLATGTMGSAGGIRINGNMQVVDADYNAIPGLYAVGLDATGLYGDSYNMEVPGAANGFAHTSGRIAARHAISTM"}, "B3": {"name": "E1 enzyme: polypeptide (SEQ ID NO: 1) having an activity to synthesize dihydrodaidzein using daidzein as a substrate (protein, listed as Lactococcus garvieae)", "chain": "MKNKFYPKTFERGYIGNLEVENRAIRMPMGTELGNPDGSPSWASLKAYAEAADGGTGIVFMDNAGVTQFHHVGLSLASDNYIGPMSVLAKTIKQHGAIPGLQIVHPGRDAAFVRGDDLISSSRIQWEPWYENGGAVPRELTIEEIHDFVGYFGDCALRAQTAGFEIVDVHAACGVLLSNFLSPRNNTRNDMYGGSLHNRARFLLEVIRDIKKKCPNLPLAIRLSGIDFEPDGITIEETCEVAKMCEAAGADAINITWGSHAEVINAAGLLSKHGANHVEAAKMIKDAVSIPTMLCGGIYSPEIGEKLLEDGVCDFIGIGKPALADPMWAKKAAEGRPEDIRPCIGCGVGCHDRGMLSGGVVQCAVNAALYKFDEPVYPQAEVPKKVIIIGAGPAGCEAAITAKKCGHDVTIYEKRKIGGVLKEATVSDSKEDLGRLITYYETQLKKEGIEVIYEEATADTVVAGGFDVAIVACGATVRNLNIDGQDDPSVVYAMDFLDNDCKSDADRVVVVGGGIVGAETALILAEERGKDVTITTRSPEFFVSGVMGIAYMVRLGMAGVTIKPSTQLVAVKDGKPMFAGPRGLETLDVDQTIISSGFVPTFNQFRAQIEEKCEDVRVIGIGDCKASRMVMDAVHEGYIAGCNL"}}, "key": {"[1]": {"test_system": "dihydrodaidzein", "assay": "Tetrahydrodaidzein biosynthesis activity in centrifuged supernatant of disrupted cell material and NADH or NADPH dependency (Example B2)", "type": "biochemical, Lactococcus 20-92 strain", "conditions": "centrifuged supernatant of disrupted cells; 37° C., 2 hours; HPLC (FIG. 11)", "description": "The frozen cells were thawed and centrifuged at 4° C. for 15 minutes (5,000×G). The pellet was used in the test below. First, the pellet (wet weight 2.7 g) was suspended in 10 ml of a 0.1 M phosphate-potassium solution containing 1 mM PMSF and 5 mM sodium hydrosulfite. After preheating at 37° C. for 5 minutes, lysozyme was added in an amount of 100 mg per gram of the pellet (wet weight) to cause a reaction at 37° C. for 1.5 hours. Then, an equivalent amount of 0.1 M dipotassium phosphate solution was added to the reaction mixture, and the mixture was vigorously agitated with a vortex mixer after adding zirconia-silica beads (3 ml). The cells were then disrupted with a sonicator (Branson Sonifier Cell Disruptor 200) (3 cycles of a 5-minute sonication and a 2-minute rest). The disrupted cell suspension was centrifuged at about 10,000×G for 15 minutes to obtain a supernatant, which was then used as an enzyme source. An enzyme reaction mixture of the composition below was prepared, and was incubated at 37° C. for 2 hours. After incubation, 5 mL of ethyl acetate was added to the enzyme reaction product for extraction. Then, the product was dried to prepare a sample for HPLC analysis. [table]"}, "[2]": {"test_system": "disrupted cell material of Lactococcus 20-92 strain", "assay": "Enzyme reaction with disrupted cell material of Lactococcus 20-92 strain as enzyme source (Example B1)", "type": "biochemical", "conditions": "10 μg/mL substrate, 2 mM NADPH, 2 mM NADH, 37° C., 2 hours", "description": "The Lactococcus 20-92 strain cells preserved at −80° C. were quickly thawed. The cells were suspended by tapping, and centrifuged at 4° C. (8,000 rpm×5 min) using a centrifuge VC-960 (Taitec). After removing the supernatant, 0.1 M potassium phosphate buffer/1 mM PMSF (phenylmethanesulfonyl fluoride)/2 mM DTT (dithiothreitol)/5 mM sodium hydrosulfite (pH 7.0) were added to obtain a cell suspension. The cell suspension was placed in a 2 ml tube prepared to include zirconia-silica beads (about 0.8 mL, 0.1 mm, 1 lb; Wakenyaku Co., Ltd.), and the tube was charged with 0.1 M potassium phosphate solution/1 mM PMSF/2 mM DTT/5 mM sodium hydrosulfite (pH 7.0) to fill the tube almost completely. For disruption, the tube was closed and kept on ice, where a cycle of 6,500 rpm×20 sec centrifugation and ice-cooling was repeated four times using FastPrep®-FP100A (Thermo Electron Corporation). The resulting disrupted cell material was used as an enzyme source in an enzyme reaction.\nA 1 mL enzyme reaction mixture of the composition below, containing 0.1 ml of the disrupted cell material obtained in (1) was prepared, and the mixture was incubated at 37° C. for 2 hours. After incubation, 3 mL of ethyl acetate was added to the resulting enzyme reaction product for extraction. The product was dried to prepare a sample for HPLC analysis. […]"}, "[3]": {"test_system": "Lactococcus 20-92 strain", "assay": "Equol biosynthetic activity of bacterial cell from tetrahydrodaidzein (Example C1)", "type": "cell-based", "conditions": "10 μg/mL in medium; 37° C., 18 hours, anaerobic; HPLC (FIG. 20)", "description": "A Lactococcus 20-92 strain (FERM BP-10036) was inoculated in a tetrahydrodaidzein-containing amplification liquid medium (a modified GAM bouillon medium (NISSUI PHARMACEUTICAL CO., LTD.) to which cis- or trans-tetrahydrodaidzein (organically-synthesized by Otsuka Pharmaceutical Co., Ltd.: see Reference Example B1) was added in an amount of 10 μg/mL), and the culture was incubated at 37° C. for 18 hours under anaerobic conditions (using BBL Gas Pack systems). After incubation, 1 mL of the culture was immediately placed in a glass centrifuge tube with cap, and 3 mL of ethyl acetate was added thereto for extraction. The product was dried to prepare a sample for HPLC analysis. As the standard solution for HPLC analysis, a mixed solution of daidzein (2 μg/mL; Funakoshi Corporation), equol (2 μg/mL; Funakoshi Corporation), dihydrodaidzein (2 μg/mL; Trend Research Chemicals Inc.), cis-tetrahydrodaidzein and trans-tetrahydrodaidzein (2 μg/mL; both chemically-synthesized by Otsuka Pharmaceutical Co., Ltd.) was used."}, "[4]": {"test_system": "His-tagged recombinant E1 enzyme", "assay": "Influence of metal ions / reducing agent on dihydrodaidzein synthesis activity of E1 enzyme", "type": "biochemical, Lactococcus 20-92 strain", "conditions": "for influence of metal ions on the conversion activity from daidzein to dihydrodaidzein: 100 μl of 100 mM metal ion solution in 1000 μl, 37° C., 2 hours, HPLC (FIG. 26); for activation of E1 enzyme (dihydrodaidzein synthesizing enzyme activity): general statement in the description", "description": "Using the His-tagged recombinant E1 enzyme ([…]) expressed in Escherichia coli, purified by Ni-Sepharose, as an enzyme source, the influence of metal ions on the conversion activity from daidzein to dihydrodaidzein was examined. Various metals (MnCl2.2H2O, FeSO4.7H2O, CaCl2.2H2O, Zn(CH3C00)2.2H2O, CoSO4.7H2O, MgSO4.7H2O, NiSO4.6H2O) were dissolved in distilled water to obtain a concentration of 100 mM. Using the metal ion solution, an enzyme reaction mixture of the composition below was prepared, and was reacted at 37° C. for 2 hours to measure the activity. [table] After incubation, 3 mL of ethyl acetate was added to the obtained enzyme reaction mixture for extraction. After drying, the extract was dissolved by the mobile phase (eluent). The dissolved product was analyzed by HPLC to measure the contents of daidzein and dihydrodaidzein in the enzyme reaction mixture."}, "[5]": {"test_system": "dihydrodaidzein", "assay": "Enzyme property of E2 enzyme (tetrahydrodaidzein synthesis using dihydrodaidzein as a substrate)", "type": "biochemical", "description": "Regarding polypeptides (Bb) and (Bc), the activity to synthesize tetrahydrodaidzein using dihydrodaidzein as a substrate can be confirmed as follows. First, a polypeptide of interest is added to a substrate solution of the composition below at a concentration of 0.001 mg/mL. The solution is then incubated at 37° C. for 2 hours to check for the presence or absence of tetrahydrodaidzein in the solution. The presence of tetrahydrodaidzein in the solution after incubation is used as an indicator of the polypeptide's activity to synthesize tetrahydrodaidzein using dihydrodaidzein as a substrate. Since E2 polypeptide has an enzyme activity to synthesize tetrahydrodaidzein using dihydrodaidzein as a substrate, E2 polypeptide is also referred to as E2 enzyme. […] The optimal temperature of E2 enzyme is in the vicinity of 37° C., and the optimal pH is 4.5."}, "[6]": {"test_system": "tetrahydrodaidzein", "assay": "Enzyme property of E3 enzyme (equol synthesis using tetrahydrodaidzein as a substrate)", "type": "biochemical", "description": "Regarding polypeptides (Cb) and (Cc), the activity to synthesize equol using tetrahydrodaidzein as a substrate can be confirmed as follows. First, a polypeptide of interest is added to a substrate solution of the composition below at a concentration of 0.001 mg/mL. The solution is then incubated at 37° C. for 2 hours to check for the presence or absence of equol in the solution. The presence of equol in the solution after incubation is used as an indicator of the polypeptide's activity to synthesize equol using tetrahydrodaidzein as a substrate. Since E3 polypeptide has an enzyme activity to synthesize equol using tetrahydrodaidzein as a substrate, E3 polypeptide is also referred to as E3 enzyme. The optimal temperature of E3 enzyme is in the vicinity of about 23 to 37° C., and the optimal pH is 4.5."}, "[7]": {"test_system": "daidzein", "assay": "Enzyme property of E1 enzyme (dihydrodaidzein synthesis using daidzein as a substrate)", "type": "biochemical", "description": "Regarding polypeptides (Ab) and (Ac), the activity to synthesize dihydrodaidzein using daidzein as a substrate can be confirmed as follows. First, a polypeptide of interest is added to a substrate solution of the composition below at a concentration of 0.001 mg/mL. The solution is then incubated at 37° C. for 2 hours to check for the presence or absence of dihydrodaidzein in the solution. The presence of dihydrodaidzein in the solution after incubation is used as an indicator of the polypeptide's activity to synthesize dihydrodaidzein using daidzein as a substrate.\nSince E1 polypeptide has an enzyme activity to synthesize dihydrodaidzein using daidzein as a substrate, E1 polypeptide is also referred to as E1 enzyme. E1 enzyme is activated by the presence of a reducing agent such as Na2S2O4 and metal ions such as Fe^2+ and Mn^2+. […] The optimal temperature of E1 enzyme is in the vicinity of 30° C., and the optimal pH is 7.0."}}, "data": [{"molecule": "NC(=O)C1=CN([C@@H]2O[C@H](COP(=O)(O)OP(=O)(O)OC[C@H]3O[C@@H](n4cnc5c(N)ncnc54)[C@H](OP(=O)(O)O)[C@@H]3O)[C@@H](O)[C@H]2O)C=CC1", "note": "[NADPH]", "values": [{"measurement": "coenzyme dependency of the conversion of dihydrodaidzein into tetrahydrodaidzein", "setting": "[1]", "value": "much more strongly"}]}, {"molecule": "Oc1ccc(C2COc3cc(O)ccc3C2O)cc1", "note": "(stereo not drawn) [cis-tetrahydrodaidzein]", "values": [{"measurement": "production of equol from tetrahydrodaidzein by enzyme reaction", "setting": "[2]; HPLC (FIG. 10)", "value": "equol was produced"}, {"measurement": "equol biosynthesis from tetrahydrodaidzein by bacterial culture", "setting": "[3]", "value": "activity to biosynthesize equol"}]}, {"molecule": "[Fe+2]", "note": "[Fe^2+]", "values": [{"measurement": "influence of metal ions on the conversion activity from daidzein to dihydrodaidzein", "setting": "[4]", "value": "stimulated the activity"}, {"measurement": "activation of E1 enzyme (dihydrodaidzein synthesizing enzyme activity)", "setting": "[4]", "value": "activated"}]}, {"molecule": "O=S([O-])S(=O)[O-].[Na+].[Na+]", "note": "[Na2S2O4]", "values": [{"measurement": "activation of E1 enzyme (dihydrodaidzein synthesizing enzyme activity)", "setting": "[4]", "value": "activated"}]}, {"molecule": "[Mn+2]", "note": "[Mn^2+]", "values": [{"measurement": "influence of metal ions on the conversion activity from daidzein to dihydrodaidzein", "setting": "[4]", "value": "stimulated the activity"}, {"measurement": "activation of E1 enzyme (dihydrodaidzein synthesizing enzyme activity)", "setting": "[4]", "value": "activated"}]}, {"molecule": "O=C1c2ccc(O)cc2OCC1c1ccc(O)cc1", "note": "(stereo not shown) [dihydrodaidzein]", "values": [{"measurement": "enzyme reaction product from dihydrodaidzein as a substrate", "setting": "[2]; HPLC (FIG. 9)", "value": "production of trans-tetrahydrodaidzein"}]}, {"molecule": "B1", "values": [{"measurement": "coenzyme requirement of E2 enzyme", "setting": "[5]", "value": "requires NADPH or NADH as a coenzyme"}, {"measurement": "optimal pH of E2 enzyme", "setting": "[5]", "value": 4.5}, {"measurement": "optimal temperature of E2 enzyme", "setting": "[5]", "value": "~37", "unit": "°C"}, {"measurement": "reverse reaction of E2 enzyme", "setting": "[5]", "value": "synthesize dihydrodaidzein from tetrahydrodaidzein"}]}, {"molecule": "B2", "values": [{"measurement": "optimal pH of E3 enzyme", "setting": "[6]", "value": 4.5}, {"measurement": "reverse reaction of E3 enzyme", "setting": "[6]", "value": "synthesize tetrahydrodaidzein from equol"}]}, {"molecule": "B3", "values": [{"measurement": "coenzyme requirement of E1 enzyme", "setting": "[7]", "value": "requires NADPH or NADH as a coenzyme"}, {"measurement": "optimal pH of E1 enzyme", "setting": "[7]", "value": 7.0}, {"measurement": "optimal temperature of E1 enzyme", "setting": "[7]", "value": "~30", "unit": "°C"}, {"measurement": "reverse reaction of E1 enzyme", "setting": "[7]", "value": "synthesize daidzein from dihydrodaidzein"}]}]}
